The source of these data is publication PMC3977929, “Affinity- and Specificity-Enhancing Mutations Are Frequent in Multispecific Interactions between TIMP2 and MMPs” (PLoS ONE, 2014).

The chains are these.
B1: N-TIMP2 WT (N-terminal domain of Tissue Inhibitor of Metalloproteinases 2, residues 1-127) (domain or fragment, human, UniProt P16035 27-153, looked up)
chain: CSCSPVHPQQAFCNADVVIRAKAVSEKEVDSGNDIYGNPIKRIQYEIKQIKMFKGPEKDIEFIYTAPSSAVCGVSLDVGGKKEYLIAGKAEGDGKMHITLCDFIVPWDTLSTTQKKSLNHRYQMGCE
notes: Monomeric fraction used; also called WT N-TIMP2
B2: N-TIMP2 S4E (domain or fragment, human, UniProt P16035 27-153, looked up)
chain: B1 chain with S4E
notes: TIMP2, human, N-terminal domain, residues 1-127; also called S04E
B3: N-TIMP2 H97R (domain or fragment, human, UniProt P16035 27-153, looked up)
chain: B1 chain with H97R
notes: TIMP2, human, N-terminal domain, residues 1-127
B4: N-TIMP2 S68Y (domain or fragment, human, UniProt P16035 27-153, looked up)
chain: B1 chain with S68Y
notes: as for B3
B5: N-TIMP2 V6R (domain or fragment, human, UniProt P16035 27-153, looked up)
chain: B1 chain with V6R
notes: TIMP2, human, N-terminal domain, residues 1-127; also called V06R
B6: N-TIMP2 S4R (domain or fragment, human, UniProt P16035 27-153, looked up)
chain: B1 chain with S4R
notes: TIMP2, human, N-terminal domain, residues 1-127; also called S04R
B7: N-TIMP2 S4A (domain or fragment, human, UniProt P16035 27-153, looked up)
chain: B1 chain with S4A
notes: as for B3
B8: N-TIMP2 T99Y (domain or fragment, human, UniProt P16035 27-153, looked up)
chain: B1 chain with T99Y
notes: as for B3
B9: N-TIMP2 N38Q (domain or fragment, human, UniProt P16035 27-153, looked up)
chain: B1 chain with N38Q
notes: as for B3
B10: N-TIMP2 V71N (domain or fragment, human, UniProt P16035 27-153, looked up)
chain: B1 chain with V71N
notes: as for B3
B11: N-TIMP2 S68W (domain or fragment, human, UniProt P16035 27-153, looked up)
chain: B1 chain with S68W
notes: as for B3
B12: N-TIMP2 I35E (domain or fragment, human, UniProt P16035 27-153, looked up)
chain: B1 chain with I35E
notes: as for B3
B13: N-TIMP2 I35K (domain or fragment, human, UniProt P16035 27-153, looked up)
chain: B1 chain with I35K
notes: as for B3
B14: N-TIMP2 S4Q (domain or fragment, human, UniProt P16035 27-153, looked up)
chain: B1 chain with S4Q
notes: TIMP2, human, N-terminal domain, residues 1-127; also called S04Q

Numbering of substitutions follows the chain as printed. Names may count otherwise.

The first assay deals with T1, MMP14 catalytic domain (UniProt P50281 112-285).
T1 construct: Matrix Metalloproteinase 14 (MMP14), catalytic domain; source: expressed recombinantly and purified as published before [12]
Nature of the assay: enzyme activity (inhibition) assay with a fluorogenic substrate; various concentrations of N-TIMP2 pre-incubated 1 hour with MMP9 (0.2 nM) or MMP14 (0.5 nM) in 50 mM Tris-HCl, 0.15 M NaCl, 10 mM CaCl2, 0.02% Brij 35, pH 7.5, 37°C; fraction of enzyme activity fitted to a 1:1 binding model to give Kd. To be noted: both partners purified.
In the case of B1, the Kd was 4.5 nM.

In the case of B2, the Kd was determined as 9.5 nM. This Kd lies about 2.1-fold higher than the previous one.

Molecule B3 displayed a Kd of 0.32 nM.

For the molecule B4, the Kd amounted to 1.1 nM. Compared with the last molecule, the Kd is about 3.4-fold higher.

The molecule B5 came in with a Kd of 1.3 nM.

In turn, B6 registered a Kd of 2.7 nM.

B7 came in with a Kd of 1.4 nM.

In the case of B8, the Kd came to 1.05 nM.

B9 came in with a Kd of 3.4 nM.

Take B10: the Kd came out at 6.5 nM. Compared with the last molecule, the Kd is about 1.9-fold higher.

Molecule B11 came in with a Kd of 0.91 nM.

Regarding B12, binding was characterised by a dissociation constant (Kd) of 5.4 nM.

In the case of B13, the dissociation constant Kd is 0.38 nM.

Turning to B14, the Kd was 1.9 nM.

For another assay, the target named is T2, MMP9 catalytic domain (UniProt P14780 107-444).
T2 construct: Matrix Metalloproteinase 9 (MMP9), catalytic domain; source: expressed recombinantly and purified as published before [12]
T2 sequence (P14780 107-444): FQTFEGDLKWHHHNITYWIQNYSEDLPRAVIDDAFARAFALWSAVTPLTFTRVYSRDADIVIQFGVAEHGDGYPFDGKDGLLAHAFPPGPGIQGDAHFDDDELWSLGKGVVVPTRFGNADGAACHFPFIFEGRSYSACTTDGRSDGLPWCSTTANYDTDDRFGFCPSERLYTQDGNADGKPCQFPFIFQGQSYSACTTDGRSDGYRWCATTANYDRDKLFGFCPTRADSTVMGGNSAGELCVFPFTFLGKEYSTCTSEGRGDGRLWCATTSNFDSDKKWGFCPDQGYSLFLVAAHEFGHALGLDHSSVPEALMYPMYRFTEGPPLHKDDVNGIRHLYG
The assay is described as above. The settings on record: both partners purified.
For the molecule B1, the Kd came to 0.9 nM.

Regarding B2, binding was put at a Kd of 15.5 nM.

On to B3, for which the Kd came to 0.5 nM.

Take B4: the Kd was 0.8 nM. This Kd is about 1.6-fold higher than that of the molecule before.

For the molecule B5, the affinity, expressed as Kd, was 0.5 nM.

Molecule B6 displayed a Kd of 0.55 nM.

As to B7, the Kd was 0.85 nM.

In the case of B8, binding was put at a Kd of 1.1 nM. The Kd values of the last two molecules are within 1.5-fold of each other.

For the molecule B9, the Kd worked out at 2.4 nM.

With B10, the Kd came out at 4.68 nM.

On to B11, for which the affinity, expressed as Kd, was 0.37 nM.

Regarding B12, binding was characterised by a dissociation constant (Kd) of 2.5 nM.

Molecule B13 yielded a Kd of 0.58 nM.

B14 displayed a Kd of 1.39 nM.

Broadly, the Kd is the equilibrium constant for the complex coming apart.
